Results on three molecules are retold here after patent publication US20180140578A1 (University of Texas, published 2018).

One test concerns the target T1, CUL4A (human, UniProt Q13619 1-759, limits assumed).
T1 construct: also called Cullin 4A
Description: anti-FLAG co-immunoprecipitation from HCT-116 cells, western blot (FIG. 3E). (Immunoblotting shows a protein as a band on a membrane.)

Another test has as its target T2, CUL4B (human, UniProt Q13620 1-913, limits assumed).
T2 construct: also called Cullin 4B
The description is as above.

The target of the next test is T3, DDB1 (human, UniProt Q16531 2-1140).
T3 construct: also called Q16531_DDB1_HUMAN
The test can be described thus: anti-FLAG immunopurification from HCT-116 lysate supplemented with indisulam, western blot (FIG. 4A).

The target in test [1] is T4, DCAF15-3xFLAG (human, UniProt Q66K64 1-600).
T4 construct: also called DDB1/DCAF15-3xFLAG; not shown: C-terminal 3xFLAG tag
Description: pull-down of 100 nM RBM39Δ150 P272S by DCAF15-3xFLAG on anti-FLAG beads with rising indisulam, western blot (FIG. 4C).

For test [2], the target named is T4, DCAF15-3xFLAG. The test can be described thus: pull-down by DCAF15-3xFLAG on anti-FLAG beads, western blot (FIG. 4C).

T4 sequence (Q66K64 whole entry): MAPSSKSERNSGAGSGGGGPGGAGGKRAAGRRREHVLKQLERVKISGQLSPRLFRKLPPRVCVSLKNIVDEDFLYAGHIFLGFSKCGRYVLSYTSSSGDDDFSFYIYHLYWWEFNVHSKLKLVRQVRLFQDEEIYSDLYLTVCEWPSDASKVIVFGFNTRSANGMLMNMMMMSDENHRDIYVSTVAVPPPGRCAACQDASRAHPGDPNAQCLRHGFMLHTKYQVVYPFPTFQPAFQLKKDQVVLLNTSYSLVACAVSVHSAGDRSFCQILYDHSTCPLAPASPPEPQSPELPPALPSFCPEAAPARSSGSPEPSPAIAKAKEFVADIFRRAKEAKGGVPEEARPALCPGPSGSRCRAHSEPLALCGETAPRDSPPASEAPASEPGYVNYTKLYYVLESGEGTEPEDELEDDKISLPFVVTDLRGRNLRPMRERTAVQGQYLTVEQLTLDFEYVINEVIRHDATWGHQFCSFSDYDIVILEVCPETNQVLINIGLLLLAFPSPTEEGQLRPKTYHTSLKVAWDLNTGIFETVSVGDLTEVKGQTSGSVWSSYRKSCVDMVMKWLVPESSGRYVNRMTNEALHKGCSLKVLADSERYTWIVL
T3 sequence (Q16531 2-1140 limits assumed): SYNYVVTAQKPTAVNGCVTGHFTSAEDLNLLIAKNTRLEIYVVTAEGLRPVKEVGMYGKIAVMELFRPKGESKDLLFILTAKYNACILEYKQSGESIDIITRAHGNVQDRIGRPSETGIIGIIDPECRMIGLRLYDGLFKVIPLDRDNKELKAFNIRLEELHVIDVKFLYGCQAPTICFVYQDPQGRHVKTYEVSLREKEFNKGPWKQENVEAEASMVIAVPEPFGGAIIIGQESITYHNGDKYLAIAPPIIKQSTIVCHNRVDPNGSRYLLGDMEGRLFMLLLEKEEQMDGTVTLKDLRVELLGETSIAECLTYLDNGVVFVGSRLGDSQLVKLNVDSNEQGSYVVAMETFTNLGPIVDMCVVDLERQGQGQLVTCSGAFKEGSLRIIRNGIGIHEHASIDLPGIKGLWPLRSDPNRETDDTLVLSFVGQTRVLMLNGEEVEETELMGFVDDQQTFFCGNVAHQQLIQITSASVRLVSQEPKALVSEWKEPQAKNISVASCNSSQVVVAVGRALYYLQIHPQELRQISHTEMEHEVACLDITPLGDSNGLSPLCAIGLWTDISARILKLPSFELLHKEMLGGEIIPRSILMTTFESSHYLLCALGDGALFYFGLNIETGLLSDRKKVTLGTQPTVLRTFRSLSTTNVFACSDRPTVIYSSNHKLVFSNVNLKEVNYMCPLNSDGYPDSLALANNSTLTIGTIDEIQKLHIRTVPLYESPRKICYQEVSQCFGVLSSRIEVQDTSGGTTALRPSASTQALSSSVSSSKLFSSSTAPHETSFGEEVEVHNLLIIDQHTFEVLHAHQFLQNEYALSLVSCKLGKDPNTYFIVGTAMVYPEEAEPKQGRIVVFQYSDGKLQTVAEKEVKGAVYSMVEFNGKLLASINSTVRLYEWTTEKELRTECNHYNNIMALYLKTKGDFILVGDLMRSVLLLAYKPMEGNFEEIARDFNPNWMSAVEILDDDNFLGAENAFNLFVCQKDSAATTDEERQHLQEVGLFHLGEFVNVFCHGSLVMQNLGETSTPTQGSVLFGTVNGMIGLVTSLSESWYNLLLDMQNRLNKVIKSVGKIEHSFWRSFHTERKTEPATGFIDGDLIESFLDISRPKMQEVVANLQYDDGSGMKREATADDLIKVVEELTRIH
T1 sequence (Q13619 whole entry): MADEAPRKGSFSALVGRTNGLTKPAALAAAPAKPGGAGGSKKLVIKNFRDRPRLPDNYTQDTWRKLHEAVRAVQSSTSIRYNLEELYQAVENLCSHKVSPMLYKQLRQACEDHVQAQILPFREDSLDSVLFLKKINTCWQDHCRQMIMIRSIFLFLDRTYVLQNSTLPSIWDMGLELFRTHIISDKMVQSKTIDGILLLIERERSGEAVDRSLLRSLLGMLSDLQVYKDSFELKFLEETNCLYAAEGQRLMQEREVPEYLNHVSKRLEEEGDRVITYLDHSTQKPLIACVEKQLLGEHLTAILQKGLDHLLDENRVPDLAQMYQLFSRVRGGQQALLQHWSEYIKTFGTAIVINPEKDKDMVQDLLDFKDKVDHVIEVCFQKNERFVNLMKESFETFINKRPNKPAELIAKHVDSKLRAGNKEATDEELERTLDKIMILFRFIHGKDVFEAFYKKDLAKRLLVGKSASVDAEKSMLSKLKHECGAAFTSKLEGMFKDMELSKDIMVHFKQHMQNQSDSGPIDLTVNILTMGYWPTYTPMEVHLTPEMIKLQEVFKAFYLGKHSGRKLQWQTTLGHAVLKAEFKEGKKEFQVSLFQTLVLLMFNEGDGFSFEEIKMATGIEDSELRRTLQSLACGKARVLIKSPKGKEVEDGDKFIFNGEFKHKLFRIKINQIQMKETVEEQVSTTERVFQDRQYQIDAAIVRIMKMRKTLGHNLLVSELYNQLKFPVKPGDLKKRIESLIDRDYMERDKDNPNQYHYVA
T2 sequence (Q13620 whole entry): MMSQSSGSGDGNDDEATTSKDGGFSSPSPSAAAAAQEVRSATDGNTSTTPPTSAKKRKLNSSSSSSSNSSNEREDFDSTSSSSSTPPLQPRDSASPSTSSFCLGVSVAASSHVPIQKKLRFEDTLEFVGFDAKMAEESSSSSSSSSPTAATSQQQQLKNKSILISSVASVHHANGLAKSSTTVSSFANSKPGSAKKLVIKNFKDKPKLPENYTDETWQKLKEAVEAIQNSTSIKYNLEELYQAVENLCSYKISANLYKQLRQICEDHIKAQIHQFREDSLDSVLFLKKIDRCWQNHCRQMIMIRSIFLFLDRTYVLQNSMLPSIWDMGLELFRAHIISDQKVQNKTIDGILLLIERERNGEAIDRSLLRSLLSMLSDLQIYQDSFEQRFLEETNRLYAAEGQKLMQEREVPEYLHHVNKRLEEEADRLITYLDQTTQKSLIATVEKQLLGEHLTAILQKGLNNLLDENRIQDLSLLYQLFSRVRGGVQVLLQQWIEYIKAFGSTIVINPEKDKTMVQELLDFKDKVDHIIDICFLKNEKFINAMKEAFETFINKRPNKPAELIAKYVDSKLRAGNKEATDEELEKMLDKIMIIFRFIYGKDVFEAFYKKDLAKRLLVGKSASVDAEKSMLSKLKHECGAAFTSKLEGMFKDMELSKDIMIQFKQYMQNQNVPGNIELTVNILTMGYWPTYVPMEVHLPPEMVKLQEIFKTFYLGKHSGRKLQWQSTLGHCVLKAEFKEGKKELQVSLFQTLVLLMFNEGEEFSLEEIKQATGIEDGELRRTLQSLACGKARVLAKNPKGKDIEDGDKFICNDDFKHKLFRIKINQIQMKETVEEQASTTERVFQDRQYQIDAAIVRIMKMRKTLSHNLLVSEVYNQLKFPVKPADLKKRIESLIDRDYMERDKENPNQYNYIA

B1: RBM39 G268V-3xFLAG (other, human, UniProt Q14498 1-530, looked up)
chain: MADDIDIEAMLEAPYKKDENKLSSANGHEERSKKRKKSKSRSRSHERKRSKSKERKRSRDRERKKSKSRERKRSRSKERRRSRSRSRDRRFRGRYRSPYSGPKFNSAIRGKIGLPHSIKLSRRRSRSKSPFRKDKSPVREPIDNLTPEERDARTVFCMQLAARIRPRDLEEFFSTVGKVRDVRMISDRNSRRSKGIAYVEFVDVSSVPLAIGLTGQRVLGVPIIVQASQAEKNRAAAMANNLQKGSAGPMRLYVGSLHFNITEDMLRVIFEPFGRIESIQLMMDSETGRSKGYGFITFSDSECAKKALEQLNGFELAGRPMKVGHVTERTDASSASSFLDSDELERTGIDLGTTGRLQLMARLAEGTGLQIPPAAQQALQMSGSLAFGAVAEFSFVIDLQTRLSQQTEASALAAAASVQPLATQCFQLSNMFNPQTEEEVGWDTEIKDDVIEECNKHGGVIHIYVDKNSAQGNVYVKCPSIAAAIAAVNALHGRWFAGKMITAAYVPLPTYHNLFPDSMTATQLLVPSRR
notes: From HCT-116 cells; for the ubiquitination assay expressed from pCDNA3.1 in 293T cells; also called RBM39-3xFLAG G268V; not shown: C-terminal 3xFLAG tag
B1: the binding result in the test with CUL4A, with CUL4B and with DDB1 was “no binding (tested: 10 µM indisulam)” in each case.

B2: RBM39Δ150 P272S (other, human, UniProt Q14498 151-530, looked up)
chain: DARTVFCMQLAARIRPRDLEEFFSTVGKVRDVRMISDRNSRRSKGIAYVEFVDVSSVPLAIGLTGQRVLGVPIIVQASQAEKNRAAAMANNLQKGSAGPMRLYVGSLHFNITEDMLRGIFESFGRIESIQLMMDSETGRSKGYGFITFSDSECAKKALEQLNGFELAGRPMKVGHVTERTDASSASSFLDSDELERTGIDLGTTGRLQLMARLAEGTGLQIPPAAQQALQMSGSLAFGAVAEFSFVIDLQTRLSQQTEASALAAAASVQPLATQCFQLSNMFNPQTEEEVGWDTEIKDDVIEECNKHGGVIHIYVDKNSAQGNVYVKCPSIAAAIAAVNALHGRWFAGKMITAAYVPLPTYHNLFPDSMTATQLLVPSRR
notes: domain: RRM1, RRM2, and RRM3 domains; Sf9 expression as for RBM39Δ150
As to B2, the “fold higher indisulam concentration required for recruitment, against wild type RBM39Δ150” value with DCAF15-3xFLAG [1] was 100 fold.

B3: RBM39Δ150 E271Q (other, human, UniProt Q14498 151-530, looked up)
chain: DARTVFCMQLAARIRPRDLEEFFSTVGKVRDVRMISDRNSRRSKGIAYVEFVDVSSVPLAIGLTGQRVLGVPIIVQASQAEKNRAAAMANNLQKGSAGPMRLYVGSLHFNITEDMLRGIFQPFGRIESIQLMMDSETGRSKGYGFITFSDSECAKKALEQLNGFELAGRPMKVGHVTERTDASSASSFLDSDELERTGIDLGTTGRLQLMARLAEGTGLQIPPAAQQALQMSGSLAFGAVAEFSFVIDLQTRLSQQTEASALAAAASVQPLATQCFQLSNMFNPQTEEEVGWDTEIKDDVIEECNKHGGVIHIYVDKNSAQGNVYVKCPSIAAAIAAVNALHGRWFAGKMITAAYVPLPTYHNLFPDSMTATQLLVPSRR
notes: domain: RRM1, RRM2, and RRM3 domains; Sf9 expression as for RBM39Δ150; also called E271Q variant of RBM39Δ150
Consider B3, for which, in the test with DCAF15-3xFLAG [2], the binding result is given as “no binding (tested: 10 µM indisulam)”.
